The values below come from PMC9482650, “Quantitative fragmentomics allow affinity mapping of interactomes” (Nature Communications, 2022).

Holding throughout (test): holdup assay
Set-up in all cases: key: below the threshold = too weak to quantify, mostly under pKd 3.1 to 4
Holding throughout (conditions): plain residues with an end cap or a label only (N-terminal biotin on a linker: ttds)

In experiment [1] the target is T1, USH1C_1, Q9Y6N9.
T1 sequence (Q9Y6N9 82-179, limits assumed, looked up): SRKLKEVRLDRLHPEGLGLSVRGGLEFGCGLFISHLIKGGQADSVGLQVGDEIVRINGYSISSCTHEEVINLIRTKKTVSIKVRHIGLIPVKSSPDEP

Experiment [2] addresses T2, LNX2_4, Q8N448.
T2 sequence (Q8N448 595-690, limits assumed, looked up): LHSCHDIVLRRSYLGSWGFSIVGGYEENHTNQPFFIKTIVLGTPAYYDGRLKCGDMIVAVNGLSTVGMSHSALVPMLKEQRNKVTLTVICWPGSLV

The target in experiment [3] is T3, SNTB2, Q13425.
T3 sequence (Q13425 110-208, limits assumed, looked up): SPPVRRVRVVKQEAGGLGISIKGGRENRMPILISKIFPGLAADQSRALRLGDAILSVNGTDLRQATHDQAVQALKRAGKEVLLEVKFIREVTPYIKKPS

Experiment [4] has as its target LMO7, Q8WWI1.
Experiment [5] addresses T4, PDZD2_5, O15018.
T4 sequence (O15018 2617-2716, limits assumed, looked up): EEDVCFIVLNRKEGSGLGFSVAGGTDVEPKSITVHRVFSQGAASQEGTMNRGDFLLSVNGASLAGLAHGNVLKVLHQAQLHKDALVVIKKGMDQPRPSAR

Experiment [6] addresses PDZRN4_2, Q6ZMN7.
For experiment [7], the target named is T5, NHERF1_2, O14745.
T5 sequence (O14745 149-244, limits assumed, looked up): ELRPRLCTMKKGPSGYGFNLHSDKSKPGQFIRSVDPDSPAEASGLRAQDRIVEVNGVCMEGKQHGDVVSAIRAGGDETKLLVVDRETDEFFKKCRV

Experiment [8] addresses MAGIX, Q9H6Y5.
The target of experiment [9] is DLG2_1, Q15700.
Experiment [10] has as its target T6, PDZD4, Q76G19.
T6 sequence (Q76G19 125-224, limits assumed, looked up): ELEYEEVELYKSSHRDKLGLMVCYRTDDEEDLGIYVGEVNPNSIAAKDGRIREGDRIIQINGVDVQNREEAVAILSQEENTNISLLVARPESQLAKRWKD

Experiment [11] addresses T7, PDZD7_1, Q9H5P4.
T7 sequence (Q9H5P4 81-178, limits assumed, looked up): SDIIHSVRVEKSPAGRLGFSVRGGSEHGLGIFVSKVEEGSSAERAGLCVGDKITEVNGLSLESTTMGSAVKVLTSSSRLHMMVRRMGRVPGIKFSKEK

For experiment [12], the target named is NHERF4_3, Q86UT5.
Sequence of NHERF4_3, Q86UT5 (Q86UT5 325-412): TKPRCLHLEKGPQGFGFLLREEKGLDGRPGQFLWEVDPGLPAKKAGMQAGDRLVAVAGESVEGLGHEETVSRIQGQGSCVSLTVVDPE
The target of experiment [13] is T8, RGS12, O14924.
T8 sequence (O14924 17-108, limits assumed, looked up): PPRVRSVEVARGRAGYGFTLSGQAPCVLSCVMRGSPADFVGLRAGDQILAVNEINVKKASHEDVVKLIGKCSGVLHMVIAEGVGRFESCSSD

Experiment [14] deals with T9, SHROOM4, Q9ULL8.
T9 sequence (Q9ULL8 5-102, limits assumed, looked up): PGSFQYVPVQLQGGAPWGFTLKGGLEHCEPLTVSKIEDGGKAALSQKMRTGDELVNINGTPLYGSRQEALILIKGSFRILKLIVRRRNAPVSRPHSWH

The target in experiment [15] is PDLIM4, P50479.
Sequence of PDLIM4, P50479 (P50479 1-83): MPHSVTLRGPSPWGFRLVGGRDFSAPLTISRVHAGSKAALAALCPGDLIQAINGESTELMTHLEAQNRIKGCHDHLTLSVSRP
For experiment [16], the target named is MAST3, O60307.
Sequence of MAST3, O60307 (O60307 945-1048): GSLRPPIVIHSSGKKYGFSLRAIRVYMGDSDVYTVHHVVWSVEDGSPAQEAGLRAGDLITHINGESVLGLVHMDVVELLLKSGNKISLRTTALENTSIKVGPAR
Experiment [17] deals with CARD14, Q9BXL6.
Sequence of CARD14, Q9BXL6 (Q9BXL6 558-663): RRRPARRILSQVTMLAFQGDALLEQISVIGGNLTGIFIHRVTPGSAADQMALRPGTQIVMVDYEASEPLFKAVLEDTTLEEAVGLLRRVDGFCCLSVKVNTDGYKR
For experiment [18], the target named is T10, PTPN4, P29074.
T10 sequence (P29074 512-599, limits assumed, looked up): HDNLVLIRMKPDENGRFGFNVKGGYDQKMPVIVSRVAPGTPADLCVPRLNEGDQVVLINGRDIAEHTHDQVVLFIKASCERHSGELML

For experiment [19], the target named is T11, PTPN13_5, Q12923.
T11 sequence (Q12923 1877-1975, limits assumed, looked up): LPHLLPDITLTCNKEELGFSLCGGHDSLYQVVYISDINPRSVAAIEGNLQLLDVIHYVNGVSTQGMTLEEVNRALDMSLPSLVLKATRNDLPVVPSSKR

The target of experiment [20] is T12, SYNPO2L, Q9H987.
T12 sequence (Q9H987 1-98, limits assumed, looked up): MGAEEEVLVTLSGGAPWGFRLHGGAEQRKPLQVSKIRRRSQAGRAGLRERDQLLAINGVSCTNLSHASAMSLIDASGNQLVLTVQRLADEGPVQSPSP

The target in experiment [21] is PARD3B_2, Q8TEW8.
Sequence of PARD3B_2, Q8TEW8 (Q8TEW8 376-471): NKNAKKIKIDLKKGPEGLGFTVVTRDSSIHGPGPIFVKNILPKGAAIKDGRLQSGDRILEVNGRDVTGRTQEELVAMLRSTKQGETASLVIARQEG
Experiment [22] deals with DVL2, O14641.
Sequence of DVL2, O14641 (O14641 260-359): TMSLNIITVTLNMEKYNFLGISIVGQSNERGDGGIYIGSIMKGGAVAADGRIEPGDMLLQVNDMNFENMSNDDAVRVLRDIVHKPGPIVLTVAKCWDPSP
For experiment [23], the target named is T13, PDZD2_4, O15018.
T13 sequence (O15018 723-823, limits assumed, looked up): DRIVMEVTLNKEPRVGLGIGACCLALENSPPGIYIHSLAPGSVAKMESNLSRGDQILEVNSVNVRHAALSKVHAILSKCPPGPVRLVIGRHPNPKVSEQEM

Sequence of MAGIX, Q9H6Y5 (Q9H6Y5 118-211): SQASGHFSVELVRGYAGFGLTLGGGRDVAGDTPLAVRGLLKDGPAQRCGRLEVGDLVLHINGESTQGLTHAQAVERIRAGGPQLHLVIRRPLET
Sequence of PDZRN4_2, Q6ZMN7 (Q6ZMN7 389-498): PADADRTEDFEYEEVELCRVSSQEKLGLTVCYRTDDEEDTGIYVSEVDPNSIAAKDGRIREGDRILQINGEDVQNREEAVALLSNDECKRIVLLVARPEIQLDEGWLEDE
Sequence of LMO7, Q8WWI1 (Q8WWI1 1037-1138): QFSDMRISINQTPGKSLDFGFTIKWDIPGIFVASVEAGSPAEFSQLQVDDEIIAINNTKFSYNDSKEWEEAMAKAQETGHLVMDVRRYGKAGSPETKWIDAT

One may read the pKd as −log10 of the Kd, conventionally taken in molar units. On to SGSRPSATVV [HPV73-E6, Q82005], for which the pKd entry in experiment [1] was “below the threshold”; in experiment [2], “below the threshold”; in experiment [3], 4.13; in experiment [4] it was “below the threshold”; in [5], “below the threshold”; in experiment [6], “below the threshold”. For the same molecule, the pKd entry in experiment [7], in experiment [8], in [9], in [10], in experiment [11] and in experiment [12] was “below the threshold” throughout. In addition, the pKd result in experiment [13] was “below the threshold”; in experiment [14], “below the threshold”; in [15], “below the threshold”; in experiment [16], “below the threshold”; in experiment [17], 4.12; in experiment [18], 4.65. The pKd result is “below the threshold” in experiment [19]; “below the threshold” in [20]; 4.24 in experiment [21]; “below the threshold” in experiment [22]; 4.26 in experiment [23].
